From publication PMC8649778

Columns and labels:
[1] = target: APRc_(110–231)(D140N)His, active site mutant of the soluble domain of APRc (UniProt Q92FY8); experiment: shift of migration in nonreducing SDS-PAGE with Western blot
human IgG (human) = experiment: BLI

Row | Substance | stoichiometry N [1] | Kd (human IgG (human)) [µM]
1 | APRc_(110–231)(D140N)His, active site mutant of the soluble domain of APRc (from UniProt Q92FY8 110-231) (domain or fragment) | 2 | 
2 | APRc_(110–231)His, soluble domain of APRc fused to a C-terminal His tag (from UniProt Q92FY8 110-231) (domain or fragment) |  | 12.6
